This note sets out measurements from paper PMC5118228 (EJNMMI Research, 2016).

As a reminder, the tissue uptake is the share of the injected amount in each gram of the tissue.

Series [1] relates to neutrophil gelatinase-associated lipocalin (NGAL). Briefly: Serum NGAL by ELISA (kidney injury biomarker). Type of series: in vivo, mice. The protocol:
MTD was defined as the highest dose given to the animals allowing 100% survival with no significant weight loss >15% throughout the experiment. Nontumor-bearing mice were randomly divided into seven cohorts used to evaluate MTD, six treatments and one control (n = 8/cohort); see Table 1. […] Control mice received DOTATATE (4 × 0.3 nmol) on four consecutive days. The animals were followed for 90 days. Serum was analyzed for the biomarker neutrophil gelatinase-associated lipocalin (NGAL) using ELISA (R&D Systems, 450 nm).
On the technique in general: ELISA stands for enzyme-linked immunosorbent assay.

The nature of the next series: in vivo. The note with it: male, athymic nu/nu, mouse, iv, 0.3 nmol, total radioactivity.
A further series has as its system AR42J tumor. The note with it: low-dose (16.8 ± 1.3 MBq) and high-dose (33.1 ± 3.7 MBq); AR42J tumor-bearing mice.

Experimental for AR42J tumor: Athymic male nu/nu mice (Tachonic), 6–8 weeks old, were used in all studies. Tumor models were established by inoculating 5 × 10^6 rat pancreatic tumor AR42J cells (American Type Culture Collection) with high SSTR2 expression into the right hind flank of the animals. After 3 weeks, the tumor size reached approximately 200 mm^3. All animal experiments were carried out following Institutional Animal Care and Use Committee-approved protocol.
Toxicity and therapeutic efficacy were investigated in 18 animals (n = 6/cohort): control, low-dose (cumulative 16.8 ± 1.3 MBq), and high-dose (cumulative 33.1 ± 3.7 MBq) cohorts. Treatment started 23 days after xenograft inoculation. Control mice received in total 4 × 0.3 nmol DOTATATE on two consecutive days. Two injections of 0.3 nmol DOTATATE per day were given, with a time interval of at least 6 h. […] The high-dose cohort received four doses on two consecutive days, twice a day with a time interval of at least 6 h. […] Animals were monitored for 30 days starting on the day of treatment. Tumors were measured by caliper, and animals were weighed at least twice weekly. The endpoints chosen were weight loss >15% and tumor volume >2000 mm^3. […]

Turning to `C[C@@H](O)[C@H](NC(=O)[C@@H]1CSSC[C@H](NC(=O)[C@@H](Cc2ccccc2)NC(=O)CN2CCN(CC(=O)O)CCN(CC(=O)O)CCN(CC(=O)O)CC2)C(=O)N[C@@H](Cc2ccc(O)cc2)C(=O)N[C@H](Cc2c[nH]c3ccccc23)C(=O)N[C@@H](CCCCN)C(=O)N[C@@H]([C@@H](C)O)C(=O)N1)C(=O)O` [^213Bi-DOTATATE, metal not drawn], the NGAL level in series [1] (high-dose(−), 28.7 ± 1.2 MBq, without L-lysine, serum ELISA) amounted to 15.8 ± 3.5 ng/mL. In addition, the “nephrotoxicity (NGAL)” value in series [1] (low-dose(−) and low-dose(+) cohorts) is listed as “No nephrotoxicity”. Moreover, the tissue uptake at 1 h in the series “in vivo” (Renal activity) came to 17.4 ± 2.2 %ID/g. For the same compound, in the series “in vivo” (Tumor uptake), the tissue uptake at 10 min was determined as 5.3 ± 2.8 %ID/g and the tissue uptake at 1 h turned out to be 6.5 ± 2.3 %ID/g. The tumor volume entry in the series on AR42J tumor is listed as “significantly decreased”.
